{"source": "the RNAGym collection of RNA variant scans (doi:10.1073/pnas.2313332121)", "parents": {"B1": {"name": "TPR 5TU (parent)", "chain": "GGAUCUUCUCGAUCUAACAAAAAAGACAAAUCUGCCACAAAGCUUGAGAGCAUCUUCGGAUGCAGAGGCGGCAGCCUUCGGUGGCGCGAUAGCGCCAACGUUCUCAACUAUGACACGCAAAACGCGUGCUCCGUUGAAUGGAGUUUAUCAUG"}}, "note": "Fewer inactive variants are shown than the library holds.", "data": [{"variants_of": "B1", "test": "polymerase ribozyme fitness, log enrichment relative to wild type (log ratio); higher = more active; in vitro selection for triplet polymerase activity", "procedure,_shortened": "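Frozen incubation at −7 °C formed the core of a single, triplicate in vitro selection round applied to PCR-built, transcribed mutant libraries of each subunit of a heterodimeric triplet polymerase ribozyme. Extended constructs were gel-excised, captured with streptavidin beads and amplified by RT-PCR, and input and output libraries were Illumina-sequenced with a filter of ≥10 input reads and ≥1 read per output. Fitness is the logarithm of genotype enrichment relative to wild-type enrichment, with inverse-variance-weighted replicate averaging, and the logarithm is base 2.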", "values": [{"variant": "GGAUCUUCUCGAUCUAACUAAAAAGACAAAUCUGCCACAAAGCUUGAGAGCAUCCUAGGAUGCAGCGGCGGCAGCCUUCGGUGGGGCGAUAGCGCCAACGUUCUCAACGAUGACACGCAAAACGCGUGCUCCGUUGAAUGGAGUUUAUCAUG", "polymerase ribozyme fitness (log ratio)": "≤ -4.2"}, {"variant": "GGAUCUUCUCGAUCUAACACAAAAGACAAAUCUGCCACAAAGCUUGAGAGCAUCUUCGGAUGCAGAGGCGGCAGCCUUCGGUGGCGCGAUAGCGCUAACGUUCUCAACUAUGACACGCAAAACGCGUGCUCCGUUGAAUGGCGUUUAUCAUG", "polymerase ribozyme fitness (log ratio)": -1.62}, {"variant": "GGAUCUUCUCGAUCUAACUAAAAAGACAAAUCUGCCACAAAGCUUGAGAGCAACUUCGGAUGCAGAGGCGCCAGCCUUCGGUGACGCGAUAGCGCUUACGUUCUCAAGUAUGACACGCAAAACGCGUGCUCCGUUGAAUUGAGUUUAUCAUG", "polymerase ribozyme fitness (log ratio)": "≤ -4.2"}, {"variant": "GGAUCUUCUCGAUCUAACACAAAAGACAAAUCUGCCACAAAGCUUGAUAGCAUCUUCGGAUGCAGAGGCGGCAGCCUUCGGUGGCGCGAUAGCGCCAACCUUCUCAACUAUGACAAGCAAAACGCGUGCUCCGUUGAAUGGAGUUUAUCAUG", "polymerase ribozyme fitness (log ratio)": "≤ -4.2"}, {"variant": "GGAUCUUCUCGAUCUAACACAAAAGAGAAAUCUGCCACAAAGCUUGAGAGCAUCUUCGGAUGCAGAGGCGGCAGCCUUCGGUGGCGCGAUAGCGCGAACGUUCUCAACUAUGACUCGCAAAACGCGUGCUCCGUUGAAUGGAGUUUAUCAUG", "polymerase ribozyme fitness (log ratio)": "≤ -4.2"}, {"variant": "GGAUCUUCUCGAUCUAACUAAAAAGACAAAUCUGCCACAAAGCUUGAGAGCAGCAUCGGAUGCAGAGGCGGCAGCCUUCGGUGGGGCGAUAGCGCCAACGUUCUCAACUAUGACACGCAAAACGCGUGCUCCGUUGAAUGGAGUUUAUCAUG", "polymerase ribozyme fitness (log ratio)": "≤ -4.2"}, {"variant": "GGAUCUUCUCGAUCUAACACAAAAGACAAAUCUGCCAGAAAGCUUGAGAGCAUCUUCGGAUGCAGAGGCAGCAGCCUUCGGUGGCGUGAUAGCGCCAACGUUCUCAAUUAUGACACGCAAAACGCGUGCUCCGUUGAAUGGAGUUUAUCAUG", "polymerase ribozyme fitness (log ratio)": "≤ -4.2"}, {"variant": "GGAUCUUCUCGAUCUAACACAAAAGGCAAAUCUGCCACAAAGCUUGAGAGCAUCUACGGAUGUAGAUGCGGCAGCCUUCAGUGGUCCGAUAGCGCCAACGUUGUCAACUAUGACACGCAAAACGCGUGCUCCGUUGAAUGGAGUUUAUCAUG", "polymerase ribozyme fitness (log ratio)": "≤ -4.2"}, {"variant": "GGAUCUUCUCGAUCUAACACAAAAGACUAAUCUGACACAAAGCUUGAGAGCAUCUUCGGAUGCAGAUGCGGCAGCCUUCGGUGGCGCGAUAGCGCCAACGUACUCAACUAUGACACGCAAAACGCGUGCUCCGUUGAAUGGAGUUUAUCAUG", "polymerase ribozyme fitness (log ratio)": "≤ -4.2"}, {"variant": "GGAUCUUCUCGAUCUAACUAAAAAGACAAAUCGGCCACACAGCUUGAGAGCAUCUUCGGAUGCAGAGGCGGCAGCCUUCGGUGGCGUGAUAGUGCCAACGUUAUCAACUAUGACACGCAAAACGCGUGCUCCGUUGAAUGGAGUUUAUCAUG", "polymerase ribozyme fitness (log ratio)": "≤ -4.2"}, {"variant": "GGAUCUUCUCGAUCUAACACAAAAGACACAUCUGCCACAAAGCUUGAGAGCAUCUUCGGAUGCAGAGGCGGCAGCCUUCGGUGGCGCGAUAUCGCCAACGUUCUCAACUAUGACACGCAAAACGCGUGCUCCGUUGAAUGGAGUUUAUGAUG", "polymerase ribozyme fitness (log ratio)": "≤ -4.2"}, {"variant": "GGAUCUUCUCGAUCUAACACUAAAGACAAGUCUGCCACAGAGCUUGAGAGCAUCUUCGGAUGCAGAGGCGGCAGCCUUCGGUGGCGCGAUAGCUCCAACGUUCUCAACUAUGACACGCAAGACGCGUGCUCCGUUGUAUGGAGUUUAUCAUG", "polymerase ribozyme fitness (log ratio)": "≤ -4.2"}, {"variant": "GGAUCUUCUCGAUCUAACACAAAAGACAAAUCUGCCAUAAAGCUUGAGAGCAUCUUCGGAUGCAGAGGCGGCAGCCUUCGGUGGCGCGAUAGCGUCAACGUUCUCAACUAUGACACGCAAACCGCGUGCUCCGCUGAAUGGAGUUUAUCAUG", "polymerase ribozyme fitness (log ratio)": -1.35}, {"variant": "GGAUCUUCUCGAUCUAACACAAAAGACAAAUCUGCCACAAAGCUUGAGAGCAUCUUCGGAUGCAGAGCCGGCAGCCUUCGGUCGCGCGUUAGCGCCAACGUACUCAACUAUGACACGCAAAACGCGUGCUCCGUUGAAUUGAGUUUAUCAUG", "polymerase ribozyme fitness (log ratio)": "≤ -4.2"}, {"variant": "GGAUCUUCUCGAUCUAACACAAAAGACAAAUCUGCCACAAAGCUUGAGAGCAUCUUGGGAUGCAGAGGCGGCAGCCUUCGGUGGAGCGAUAGCGCCAACGUUCUCAACUAUGACACGUAAAACGCGUGCUCCGUUGAAUGGACUUUAUCAUG", "polymerase ribozyme fitness (log ratio)": -3.96}, {"variant": "GGAUCUUCUCGAUCUAACACAAAAGACAAAUCUGCCACAAAGCUUGAGAGCAUCUUCGGAUGCAGAGGCGGCAGCCUUCGGUGGGGCGAUAGCGCCAACGUUCUCAACUAUGUCACGCAAAACGCGUGCUCCGUUGAAUGGAGUUUAUCAUG", "polymerase ribozyme fitness (log ratio)": -3.57}, {"variant": "GGAUCUUCUCGAUCUAACACAAAAGACAAAUCUGCCACAAAGCUUGAGAGGAUCUUCGGAUGCAGAGGCGGCAGCCUUCGGUGGCGCGAUAGCGGCAACGUUCUCAACUAUGACACGCAAAACGCGUGCUCCGUUGAAUGGAGUUUAUUAUG", "polymerase ribozyme fitness (log ratio)": "≤ -4.2"}, {"variant": "GGAUCUUCUCGAUCUAACUAAAAAGACAAAUCUGCCACAAAGCUUGAGAGCAUCUUCGGAUGCAGAGGCGGCAGCCUUCGGUGGCGCGAUAGCGCCAACGUUCACAACUAUGACACGCAAAACGCGUGCUCCGUUGAAUGGAGUUUAUCAUG", "polymerase ribozyme fitness (log ratio)": -0.0348}, {"variant": "GGAUCUUCUCGAUCUAACUAAAAAGACAAACCUGCCACAAAGCUUGAGAGCAUCUUCGGAUGCAGAGGCGGCAGCCUUCGGUGGCGCGAUAGCGCCAACGUUCUCAACUAUGACACGCAAAACGCGUGCUCGGUUGAAUGGAGUUUAUCAUG", "polymerase ribozyme fitness (log ratio)": -2.74}]}]}
